From paper PMC3852957 come the findings set out here.

A word on the pKd: it is −log10 of the Kd, conventionally taken in molar units.

Assay [1] addresses human GLP-1 receptor (human) (UniProt P43220).
Assay [2] deals with human serum albumin (human) (UniProt P02768). The assay is described as follows: SPR; Biacore; 500 resonance units of albumin coupled to a CM5 chip; GAlbudAb flowed in HBS-P+ buffer at 39 nM to 5 μM; KD by the 1:1 interaction model in BiaEval software.
In assay [3] the target is rat serum albumin (rat) (UniProt P02770). The description is as above.
In assay [4] the target is cynomolgus monkey serum albumin (cynomolgus monkey) (UniProt A2V9Z4). Described as above.

pKd: −log10 of the molar value.

Chain of UniProt P43220 (P43220 24-463): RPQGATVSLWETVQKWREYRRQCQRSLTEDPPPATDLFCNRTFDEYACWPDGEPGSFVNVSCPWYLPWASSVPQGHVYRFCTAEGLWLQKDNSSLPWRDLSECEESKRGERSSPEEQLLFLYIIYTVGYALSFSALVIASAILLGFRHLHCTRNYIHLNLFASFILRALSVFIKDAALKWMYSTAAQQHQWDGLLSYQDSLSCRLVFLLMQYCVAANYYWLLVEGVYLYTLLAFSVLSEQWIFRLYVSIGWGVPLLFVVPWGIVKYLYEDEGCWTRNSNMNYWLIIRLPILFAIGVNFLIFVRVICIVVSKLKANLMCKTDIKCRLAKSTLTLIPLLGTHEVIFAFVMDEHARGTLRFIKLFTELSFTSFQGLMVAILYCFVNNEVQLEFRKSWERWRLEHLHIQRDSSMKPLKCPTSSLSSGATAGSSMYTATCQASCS
Chain of UniProt A2V9Z4 (A2V9Z4 25-608): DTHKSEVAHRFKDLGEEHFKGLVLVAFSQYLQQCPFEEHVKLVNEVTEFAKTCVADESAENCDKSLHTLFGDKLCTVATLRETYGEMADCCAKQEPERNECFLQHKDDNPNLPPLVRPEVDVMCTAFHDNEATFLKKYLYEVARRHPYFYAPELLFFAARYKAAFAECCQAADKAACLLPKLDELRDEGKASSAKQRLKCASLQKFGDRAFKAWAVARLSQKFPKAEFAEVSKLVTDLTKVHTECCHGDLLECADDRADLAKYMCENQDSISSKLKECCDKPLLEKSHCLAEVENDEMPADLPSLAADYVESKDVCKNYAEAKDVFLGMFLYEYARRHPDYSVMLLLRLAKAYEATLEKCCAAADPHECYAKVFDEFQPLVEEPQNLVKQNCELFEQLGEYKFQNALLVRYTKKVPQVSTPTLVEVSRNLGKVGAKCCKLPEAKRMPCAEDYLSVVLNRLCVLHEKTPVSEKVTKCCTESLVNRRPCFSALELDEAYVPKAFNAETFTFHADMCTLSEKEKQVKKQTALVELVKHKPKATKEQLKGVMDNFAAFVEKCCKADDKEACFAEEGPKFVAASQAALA
Chain of UniProt P02768 (P02768 25-609): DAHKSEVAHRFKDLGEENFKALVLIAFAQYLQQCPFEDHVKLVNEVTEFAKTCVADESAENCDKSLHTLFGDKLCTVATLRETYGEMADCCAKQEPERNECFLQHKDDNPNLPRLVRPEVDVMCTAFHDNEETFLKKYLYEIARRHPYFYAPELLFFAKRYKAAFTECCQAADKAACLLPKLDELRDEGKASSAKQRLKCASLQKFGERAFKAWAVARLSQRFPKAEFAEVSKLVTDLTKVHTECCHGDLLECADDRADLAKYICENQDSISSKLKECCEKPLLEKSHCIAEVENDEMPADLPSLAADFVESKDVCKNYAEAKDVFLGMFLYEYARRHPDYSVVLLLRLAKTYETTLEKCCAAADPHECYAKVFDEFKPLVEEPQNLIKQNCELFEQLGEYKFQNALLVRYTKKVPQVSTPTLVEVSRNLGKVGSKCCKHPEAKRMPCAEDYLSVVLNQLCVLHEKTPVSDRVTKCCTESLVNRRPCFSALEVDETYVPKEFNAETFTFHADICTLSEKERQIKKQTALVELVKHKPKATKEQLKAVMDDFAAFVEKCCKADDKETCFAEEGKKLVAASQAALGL
Chain of UniProt P02770 (P02770 25-608): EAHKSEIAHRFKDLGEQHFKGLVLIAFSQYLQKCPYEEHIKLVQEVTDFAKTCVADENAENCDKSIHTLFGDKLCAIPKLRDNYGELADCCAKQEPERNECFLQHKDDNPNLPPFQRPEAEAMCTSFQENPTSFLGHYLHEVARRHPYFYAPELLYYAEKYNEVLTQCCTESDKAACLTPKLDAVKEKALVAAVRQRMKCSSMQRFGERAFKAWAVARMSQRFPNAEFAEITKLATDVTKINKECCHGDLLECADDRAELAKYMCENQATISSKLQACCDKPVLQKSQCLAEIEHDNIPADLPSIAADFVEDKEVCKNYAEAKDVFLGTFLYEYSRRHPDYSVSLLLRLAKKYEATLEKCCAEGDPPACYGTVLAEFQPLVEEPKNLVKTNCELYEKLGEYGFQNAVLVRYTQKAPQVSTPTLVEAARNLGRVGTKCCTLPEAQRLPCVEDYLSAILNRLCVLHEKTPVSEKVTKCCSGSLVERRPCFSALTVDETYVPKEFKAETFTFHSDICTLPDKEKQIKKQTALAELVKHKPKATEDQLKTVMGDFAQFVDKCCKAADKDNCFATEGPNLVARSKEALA

As to “GAlbudAb, DPP-IV resistant GLP-1 (7–36, A8G) fused to the DOM7h-14 AlbudAb”, in assay [1], the cAMP-driven luciferase reporter gene expression in CHO cells stably transfected with human GLP-1 receptor (EC50) was determined as 0.0001 µM. Moreover, the pKd was 6.84 in assay [2], 6.56 in assay [3] and 6.40 in assay [4].
Regarding GLP-1 (7–36) peptide, in assay [1], the cAMP-driven luciferase reporter gene expression in CHO cells stably transfected with human GLP-1 receptor (EC50) is 0.0001 µM.
